Measured values as given in publication PMC13061415, “A structural code for assembly specificity in GID/CTLH-type E3 ligases” (eLife, 2026).
Residue numbers refer to the chain shown, from its start. In names and notes the source's numbering stands. Several values for one entry are separate records, joined by “and”; a condition that tells them apart may be missing. Equal entries are not always repeated.

B1: muskelin CTLH-CRA domain, C-terminally shortened (205–719, Δ248–624) (domain or fragment, rat, UniProt Q99PV3 205-719, looked up)
chain: EHPMLTDMHDKLVLKGDFDACEELIEKAVNDGLFNQYISQQEYRPSKDYLLRHCKYLIRKHRFEEKAQMDPLSALKYLQNDLYITVDHSDPEETKEFQLLASALFKSGSDFTALGFSDVDHTYAQRTQLFDTLVNFFP
notes: muskelin, rat, residues 205-719 with 248-624 deleted; Insoluble on its own; soluble only when co-expressed with RanBP9/10 CTLH-CRA domains; also called muskelin (shortened C-terminus); Mkln; not shown: His6, N-terminal, cleaved
B2: Maea CTLH-CRA domain (156-279) (domain or fragment, mouse, UniProt Q4VC33 156-279, looked up)
chain: NIEMFLTAKEVEESLERRETATCLAWCHDNKSRLRKMKSCLEFSLRIQEFIELVRQNKRLDAVRHARKHFSQAEGSQLDEVRQVMGMLAFPPDTHISPYKDLLDPARWRMLIQQFRYDNYRLHQ
notes: Maea, mouse, residues 156-279; In solution between a dimer and a tetramer (dimer of dimers), depending on concentration; source: E. coli BL21 CodonPlus (DE3) RIL, purified (Ni-IDA, 3C cleavage, SEC); also co-expressed with Twa1 (1–228); not shown: His6, N-terminal, cleaved
B3: Maea CTLH-CRA domain double mutant (Y272A, Y275A) (domain or fragment, mouse, UniProt Q4VC33 156-279, looked up)
chain: B2 chain with Y117A, Y120A
notes: Maea, mouse, CTLH-CRA domain; also called Maea double mutant; source: E. coli BL21 CodonPlus (DE3) RIL, purified (Ni-IDA, 3C cleavage, SEC); not shown: His6, N-terminal, cleaved
B4: Twa1_14 mutant (A125G, Q126R, ΔT127, Q128E, A130Q, M143L, E144Q, L147F, A148S, F152Y, F160V; 58–190), CTLH-CRA domain (domain or fragment, mouse, UniProt Q9D7M1 58-190, looked up)
chain: SVDLETLDERIKIREMILKGQIQEAIALINSLHPELLDTNRYLYFHLQQQHLIELIRQRETEAALEFGRELQEQGEESRECLTELQRTFSLLAYDSPEESPVGDLLHMMQRQKVWSEVNQAVLDYENRESTP
notes: Twa1, mouse, CTLH-CRA domain 58-190 with eleven RanBP10-like changes; also called Twa_14; source: E. coli BL21 CodonPlus (DE3) RIL, purified (Ni-IDA, 3C cleavage, SEC); not shown: His6, N-terminal, cleaved
B5: muskelin CTLH-CRA domain (205–735 Δ248–625) (domain or fragment, rat, UniProt Q99PV3 205-735, looked up)
chain: EHPMLTDMHDKLVLKGDFDACEELIEKAVNDGLFNQYISQQEYPSKDYLLRHCKYLIRKHRFEEKAQMDPLSALKYLQNDLYITVDHSDPEETKEFQLLASALFKSGSDFTALGFSDVDHTYAQRTQLFDTLVNFFPDSMTPPKGNLVDLITL
notes: muskelin, rat, fusion of the CTLH motif and the C-terminus (CRA^N-like): residues 205-735 with 248-625 deleted; also called muskelin wt; CTLH-Ct construct; source: E. coli BL21 CodonPlus (DE3) RIL, purified as described previously (van gen Hassend et al., 2023)
B6: Rmnd5a CTLH-CRA domain (147-275) (domain or fragment, mouse, UniProt Q80YQ8 147-275, looked up)
chain: DPSQKEPFVELNRILEALKVRVLRPALEWAVSNREMLIAQNSSLEFKLHRLYFISLLMGGTTNQREALQYAKNFQPFALNHQKDIQVLMGSLVYLRQGIENSPYVHLLDANQWADICDIFTRDACALLG
notes: Rmnd5a, mouse, residues 147-275; Could not be purified on its own; soluble when co-expressed with Twa1; source: E. coli BL21 CodonPlus (DE3) RIL, co-expressed with Twa1 (1–228), complex purified (Ni-IDA, 3C cleavage, SEC); not shown: His6, N-terminal, cleaved
B7: muskelin (1–735) (natural protein, rat, UniProt Q99PV3 1-735, looked up)
chain: MAAGGAVAAAPECRLLPYALHKWSSFSSTYLPENILVDKPNDQSSRWSSESNYPPQYLILKLERPAIVQNITFGKYEKTHVCNLKKFKVFGGMNEENMTELLSSGLKNDYNKETFTLKHKIDEQMFPCRFIKIVPLLSWGPSFNFSIWYVELSGIDDPDIVQPCLNWYSKYREQEAIRLCLKHFRQHNYTEAFESLQKKTKIALEHPMLTDMHDKLVLKGDFDACEELIEKAVNDGLFNQYISQQEYKPRWSQIIPKSTKGDGEDNRPGMRGGHQMVIDVQTETVYLFGGWDGTQDLADFWAYSVKENQWTCISRDTEKENGPSARSCHKMCIDIQRRQIYTLGRYLDSSVRNSKSLKSDFYRYDIDTNTWMLLSEDTAADGGPKLVFDHQMCMDSEKHMIYTFGGRILTCNGSVDDSRASEPQFSGLFAFNCQCQTWKLLREDSCNAGPEDIQSRIGHCMLFHSKNRCLYVFGGQRSKTYLNDFFSYDVDSDHVDIISDGTKKDSGMVPMTGFTQRATIDPELNEIHVLSGLSKDKEKREENVRNSFWIYDIVRNSWSCVYKNDQAAKENLSKSLQEEEPCPRFAHQLVYDELHKVHYLFGGNPGKSCSPKMRLDDFWSLKLCRPSKDYLLRHCKYLIRKHRFEEKAQMDPLSALKYLQNDLYITVDHSDPEETKEFQLLASALFKSGSDFTALGFSDVDHTYAQRTQLFDTLVNFFPDSMTPPKGNLVDLITL
notes: muskelin, rat, residues 1-735; also called full-length muskelin; tetrameric muskelin; source: E. coli BL21 CodonPlus (DE3) RIL, purified as described previously (van gen Hassend et al., 2023)
B8: Wdr26 (102–641) (domain or fragment, mouse, UniProt Q8C6G8 102-641, looked up)
chain: QSDEDVIRLIGQHLNGLGLNQTVDLLMQESGCRLEHPSATKFRNHVMEGDWDKAENDLNELKPLVHSPHAIVVRGALEISQTLLGIIVRMKFLLLQQKYLEYLEDGKVLEALQVLRCELTPLKYNTERIHVLSGYLMCSHAEDLRAKAEWEGKGTASRSKLLDKLQTYLPPSVMLPPRRLQTLLRQAVELQRDRCLYHNTKLDNNLDSVSLLIDHVCSRRQFPCYTQQILTEHCNEVWFCKFSNDGTKLATGSKDTTVIIWQVDPDTHLLKLLKTLEGHAYGVSYIAWSPDDSYLVACGPDDCSELWLWNVQTGELRTKMSQSHEDSLTSVAWNPDGKRFVTGGQRGQFYQCDLDGNLLDSWEGVRVQCLWCLSDGKTVLASDTHQRVRGYNFEDLTDRNIVQEDHPIMSFTISKNGRLALLNVATQGVHLWDLQDRVLVRKYQGVTQGFYTIHSCFGGHNEDFIASGSEDHKVYIWHKRSELPIAELTGHTRTVNCVSWNPQIPSMMASASDDGTVRIWGPAPFIDHQNIEEECSSMDS
notes: Wdr26, mouse, residues 102-641; also called dimeric Wdr26; (near) full-length Wdr26; source: E. coli BL21 CodonPlus (DE3) RIL, purified as described previously (van gen Hassend et al., 2023)

Assays:
[1] = target: T1, RanBP9 CTLH-CRA domain (324–614, Δ391–534) (mouse, UniProt P69566 324-614, Δ391–534); assay: SEC-MALS; CTLH-CRA domain complexes co-expressed in E. coli and purified as complexes; Superdex 75 10/300 GL; 20 mM tricine pH 8.0, 500 mM NaCl, 1 mM TCEP; details: both partners purified
T1 construct: RanBP9, mouse, fusion of CTLH and CRA^N: residues 324-614 with the linker 391-534 deleted (without the CRA^C segment); A longer construct with the CRA^C segment (324–638, Δ391–534) was crystallised alone (PDB 9SNE); also called R9
T1 sequence (P69566 other isoform, or with tags, fused parts or gaps Δ391–534 | Δ391–534 | mutant): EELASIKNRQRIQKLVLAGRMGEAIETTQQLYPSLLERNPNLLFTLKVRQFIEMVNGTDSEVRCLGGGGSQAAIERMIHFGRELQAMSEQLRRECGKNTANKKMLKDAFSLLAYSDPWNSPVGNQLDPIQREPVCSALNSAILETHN

Twa1 (1–228) = target: T2, Twa1 (1–228) (mouse, UniProt Q9D7M1 1-228); assay: SEC-MALS; Superdex 200 10/300 GL; Twa1 (1–228) alone, co-expressed Twa1-Rmnd5a (CTLH-CRA) and Twa1-Maea (CTLH-CRA) complexes, Maea double mutant (Y272A, Y275A); details: both partners purified
T2 construct: Twa1, mouse, residues 1-228; A homodimer on its own (SEC-MALS); one copy pairs with RanBP10 in the heterodimer of PDB 9SOC; also called full-length dimeric Twa1; source: E. coli BL21 CodonPlus (DE3) RIL, purified as described previously (van gen Hassend et al., 2023)
T2 sequence (Q9D7M1 whole entry, the tested form may be a part): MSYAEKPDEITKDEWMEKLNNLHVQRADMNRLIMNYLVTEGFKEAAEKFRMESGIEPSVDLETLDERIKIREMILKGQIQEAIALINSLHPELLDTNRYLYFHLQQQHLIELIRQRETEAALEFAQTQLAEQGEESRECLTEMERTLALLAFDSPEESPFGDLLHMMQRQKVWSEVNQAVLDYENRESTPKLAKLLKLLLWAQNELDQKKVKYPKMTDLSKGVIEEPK

[2] = target: the molecule itself; assay: SEC-MALS; Maea CTLH-CRA dilution series, Superdex 200 10/300 GL; molar masses of 0.3 ml peak fractions against concentration, one-site binding fit; the constant is of the step tetramer (dimer of dimers) to dimers
[3] = target: B4; assay: native gel or EMSA; native agarose gel electrophoresis (NAGE): CTLH-CRA domains at 200 μM incubated with the partner at least 30 min at room temperature; 0.8% agarose, 25 mM Tris, 200 mM glycine, 4°C; Coomassie; details: both partners purified
[4] = target: T3, Twa1_10 mutant (A130Q, L147F, F152Y, F160V), CTLH-CRA domain (mouse, UniProt Q9D7M1 58-190, A130Q | L147F | F152Y | F160V); assay: as above; details: both partners purified
T3 construct: Twa1, mouse, CTLH-CRA domain 58-190 with four RanBP10-like substitutions; source: E. coli BL21 CodonPlus (DE3) RIL, purified (Ni-IDA, 3C cleavage, SEC); not shown: His6, N-terminal, cleaved

[5] = target: the molecule itself; assay: SEC-MALS; Superdex 200 10/300 GL; Twa1 (1–228) alone, co-expressed Twa1-Rmnd5a (CTLH-CRA) and Twa1-Maea (CTLH-CRA) complexes, Maea double mutant (Y272A, Y275A)
[6] = target: B5; assay: ITC; muskelin CTLH-CRA (160 μM, syringe) titrated into RanBP10 or Twa1 CTLH-CRA variants (16 μM, cell); 25°C; 20 mM tricine pH 8.0, 500 mM NaCl, 1 mM TCEP; one-site model; details: both partners purified
[7] = target: T4, Twa1_52 mutant (A125G, Q126R, Δ127T, L140K, E144K, L147F, F152Y, F160V), CTLH-CRA domain (mouse, UniProt Q9D7M1 58-190, A125G | Q126R | Δ127T | L140K | E144K | L147F | F152Y | F160V); assay: SEC-MALS; purified CTLH-CRA domains alone or mixed (RanBP10 and Twa1 variants with Maea or muskelin), final concentration 250 μM, Superdex 75 10/300 GL; details: both partners purified
T4 construct: Twa1, mouse, CTLH-CRA domain 58-190 with eight changes; source: E. coli BL21 CodonPlus (DE3) RIL, purified (Ni-IDA, 3C cleavage, SEC); also tagless, co-expressed with muskelin or Wdr26 CTLH-CRA domain; not shown: His6, N-terminal, cleaved

[8] = target: T5, RanBP9 (69–653)-Twa1 (1–228) complex (mouse, UniProt P69566 69-653; Q9D7M1 1-228); assay: ITC; competition: RanBP9-Twa1 or RanBP10-Twa1 complex (160 μM) titrated into pre-formed Twa1_52-muskelin or Twa1_52-Wdr26 complex (16 μM); 25°C; competitive binding model with the parameters of the first titration; details: both partners purified
T5 construct: RanBP9, mouse, residues 69-653; Twa1, mouse, residues 1-228; In the text on the KD values the complex is called simply RanBP9; also called RanBP9-Twa1; source: E. coli BL21 CodonPlus (DE3) RIL, complex purified as described previously (van gen Hassend et al., 2023)
T5 sequence (P69566 69-653, chain 1 of 2): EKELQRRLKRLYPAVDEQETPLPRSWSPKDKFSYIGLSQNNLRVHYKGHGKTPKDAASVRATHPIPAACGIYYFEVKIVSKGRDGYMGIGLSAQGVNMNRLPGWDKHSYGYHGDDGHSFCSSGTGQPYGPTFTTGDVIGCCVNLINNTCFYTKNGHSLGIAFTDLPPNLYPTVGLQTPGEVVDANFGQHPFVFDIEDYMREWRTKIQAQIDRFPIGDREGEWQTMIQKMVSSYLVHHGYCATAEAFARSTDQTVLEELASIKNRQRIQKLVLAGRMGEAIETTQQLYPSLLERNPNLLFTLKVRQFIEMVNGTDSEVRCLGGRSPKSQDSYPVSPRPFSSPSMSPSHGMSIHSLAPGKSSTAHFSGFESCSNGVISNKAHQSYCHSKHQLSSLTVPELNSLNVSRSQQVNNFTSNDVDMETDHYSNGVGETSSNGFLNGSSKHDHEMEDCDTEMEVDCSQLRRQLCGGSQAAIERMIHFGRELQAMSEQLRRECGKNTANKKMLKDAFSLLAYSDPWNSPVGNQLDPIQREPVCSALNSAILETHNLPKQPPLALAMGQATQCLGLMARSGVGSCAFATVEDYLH
T5 sequence (Q9D7M1 whole entry, chain 2 of 2, the tested form may be a part): as the sequence (Q9D7M1 whole entry, the tested form may be a part) above

[9] = target: the molecule itself; assay: SEC-MALS; ITC-assembled samples: excess RanBP9-Twa1 added to pre-assembled Twa1_52-muskelin or Twa1_52-Wdr26; Superose 6 10/300 GL

Binder: B1
- stoichiometry N [1]: 1

Binder: B2
- stoichiometry N (Twa1 (1–228)): 1
- Kd [2]: ~5 µM
- stoichiometry N [2]: 2 and 4
- binding result [3]: binds
- binding result [4]: binds

Binder: B3
- stoichiometry N [5]: 2

Binder: B4
- Kd [6]: 192 nM

Binder: B5
- stoichiometry N [7]: 1

Binder: B6
- stoichiometry N (Twa1 (1–228)): 1

Binder: B7
- Kd [8]: 0.0795 nM
- stoichiometry N [9]: 4

Binder: B8
- Kd [8]: 0.412 nM
- stoichiometry N [9]: 2
